Experimental data reported in article PMC3093450 (Nature, 2011).
Positions count from the first letter of the chain named. Numbers in names are those of the source.

T1: His6-Sec24p (yeast, UniProt P40482 1-926)
T1 sequence (looked up): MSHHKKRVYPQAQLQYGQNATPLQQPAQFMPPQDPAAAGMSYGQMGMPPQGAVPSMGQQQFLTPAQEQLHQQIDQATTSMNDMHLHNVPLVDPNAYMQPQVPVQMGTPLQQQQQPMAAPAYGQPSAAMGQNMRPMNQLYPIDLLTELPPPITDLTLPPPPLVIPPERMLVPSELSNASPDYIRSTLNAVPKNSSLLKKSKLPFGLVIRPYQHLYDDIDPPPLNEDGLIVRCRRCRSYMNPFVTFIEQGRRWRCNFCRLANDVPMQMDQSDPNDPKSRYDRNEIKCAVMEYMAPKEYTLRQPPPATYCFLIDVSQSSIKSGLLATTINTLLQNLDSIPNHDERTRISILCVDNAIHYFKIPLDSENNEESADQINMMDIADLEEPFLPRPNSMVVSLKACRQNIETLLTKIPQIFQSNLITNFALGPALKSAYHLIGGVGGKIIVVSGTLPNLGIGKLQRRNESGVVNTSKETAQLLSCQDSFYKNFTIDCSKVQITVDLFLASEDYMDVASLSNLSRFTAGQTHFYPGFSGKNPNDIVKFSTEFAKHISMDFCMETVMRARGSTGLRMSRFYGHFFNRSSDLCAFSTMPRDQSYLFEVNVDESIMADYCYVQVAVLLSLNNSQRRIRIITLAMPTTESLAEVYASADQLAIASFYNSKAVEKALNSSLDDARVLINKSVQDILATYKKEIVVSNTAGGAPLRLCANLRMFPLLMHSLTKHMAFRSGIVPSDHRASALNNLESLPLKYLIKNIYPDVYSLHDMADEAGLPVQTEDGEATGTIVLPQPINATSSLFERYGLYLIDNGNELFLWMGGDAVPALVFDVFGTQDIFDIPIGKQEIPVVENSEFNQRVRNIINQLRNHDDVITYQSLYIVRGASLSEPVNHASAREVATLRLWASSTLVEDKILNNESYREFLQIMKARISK

B1: His6-Hrr25p (enzyme, yeast, UniProt P29295 1-494, looked up)
chain: MDLRVGRKFRIGRKIGSGSFGDIYHGTNLISGEEVAIKLESIRSRHPQLDYESRVYRYLSGGVGIPFIRWFGREGEYNAMVIDLLGPSLEDLFNYCHRRFSFKTVIMLALQMFCRIQYIHGRSFIHRDIKPDNFLMGVGRRGSTVHVIDFGLSKKYRDFNTHRHIPYRENKSLTGTARYASVNTHLGIEQSRRDDLESLGYVLIYFCKGSLPWQGLKATTKKQKYDRIMEKKLNVSVETLCSGLPLEFQEYMAYCKNLKFDEKPDYLFLARLFKDLSIKLEYHNDHLFDWTMLRYTKAMVEKQRDLLIEKGDLNANSNAASASNSTDNKSETFNKIKLLAMKKFPTHFHYYKNEDKHNPSPEEIKQQTILNNNAASSLPEELLNALDKGMENLRQQQPQQQVQSSQPQPQPQQLQQQPNGQRPNYYPEPLLQQQQRDSQEQQQQVPMATTRATQYPPQINSNNFNTNQASVPPQMRSNPQQPPQDKPAGQSIWL
B2: GST-Sec23p S742D (natural protein, yeast)
chain: DFETNEDINGVRFTWNVFPSTRSDANSNVVPVGCLYTPLKEYDELNVAPYNPVVCSGPHCKSILNPYCVIDPRNSSWSCPICNSRNHLPPQYTNLSQENMPLELQSTTIEYITNKPVTVPPIFFFVVDLTSETENLDSLKESIITSLSLLPPNALIGLITYGNVVQLHDLSSETIDRCNVFRGDREYQLEALTEMLTGQKPTGPGGAASHLPNAMNKVTPFSLNRFFLPLEQVEFKLNQLLENLSPDQWSVPAGHRPLRATGSALNIASLLLQGCYKNIPARIILFASGPGTVAPGLIVNSELKDPLRSHHDIDSDHAQHYKKACKFYNQIAQRVAANGHTVDIFAGCYDQIGMSEMKQLTDSTGGVLLLTDAFSTAIFKQSYLRLFAKDEEGYLKMAFNGNMAVKTSKDLKVQGLIGHASAVKKTDANNISESEIGIGATSTWKMASLSPYHSYAIFFEIANTAANSNPMMSAPGSADRPHLAYTQFITTYQHSSGTNRIRVTTVANQLLPFGTPAIAASFDQEAAAVLMARIAVHKAETDDGADVIRWLDRTLIKLCQKYADYNKDDPQSFRLAPNFSLYPQFTYYLRRSQFLSVFNNSPDETAFYRHIFTREDTTNSLIMIQPTLTSFSMEDDPQPVLLDSISVKPNTILLLDTFFFILIYHGEQIAQWRKAGYQDDPQYADFKALLEEPKLEAAELLVDRFPLPRFIDTEAGGSQARFLLSKLNPSDNYQDMARGGDTIVLTDDVSLQNFMTHLQQVAVSGQA
B3: GST-Sec23p (natural protein, yeast)
chain: B2 chain with D741S
B4: GST-Sec23p S742D/T747E (natural protein, yeast)
chain: B2 chain with T746E
B5: GST-Sec23p T747E (natural protein, yeast)
chain: B2 chain with D741S, T746E

Tests used:
[1] = target: B3; assay: pull-down
[2] = target: T1, His6-Sec24p; assay: pull-down

Row | Kd [1] | binding result [2] | Binder
1 | 43 nM | – | B1
2 | – | binds | B2
3 | – | binds | B3
4 | – | binds | B4
5 | – | binds | B5
